Source: the RNAGym collection of RNA variant scans (doi:10.7554/elife.90254)

B1: LINE1-mini (parent)
chain: GGCAGAGCUCAACACAGCGUGGCAAAGUGGCUGUGGCUAGACUGCC

Variants of: B1
Test: self-cleavage, relative activity (ratio to wild type); higher = more cleavage; in vitro, sequencing; the parent is a self-cleaving ribozyme

Row | Variant | self-cleavage
1 | U34C C45U | 0.14
2 | U34C C45G | 0.11
3 | U34A G44C | 0.04
4 | U34A G44U | 0.11
5 | U34A G44A | 0.06
6 | G33C G40C | 0.07
7 | G33C G40U | 0.06
8 | G33C G40A | 0.05
9 | U32C C42U | 0.22
10 | U32C C42G | 0.1
11 | U32C C42A | 0.12
12 | U32G A41G | 0.08
13 | U32G A41U | 0.07
14 | U32G A41C | 0.05
15 | G33C A41U | 0.08
16 | G33C A41C | 0.05
17 | G33C A41G | 0.04
18 | U32A C45U | 0.07
19 | U32A C45G | 0.07
20 | U32A C45A | 0.11
21 | U34C C46U | 0.12
22 | U34C C46A | 0.16
23 | U34C C46G | 0.1
24 | U32C U43G | 0.13

Row | Variant | self-cleavage
25 | U32C U43A | 0.05
26 | U32C U43C | 0.05
27 | U32G G44A | 0.08
28 | U32G G44C | 0.06
29 | U32G G44U | 0.05
30 | U32C G35A | 0.06
31 | U32C G35C | 0.08
32 | U32C G35U | 0.12
33 | G33A U43C | 0.05
34 | G33A U43G | 0.13
35 | G33A U43A | 0.12
36 | U32G G33C | 0.09
37 | U32G G33U | 0.07
38 | U32G G33A | 0.08
39 | U32A U34G | 0.03
40 | U32A U34C | 0.15
41 | U32A U34A | 0.05
42 | U32G A39U | 0.1
43 | U32G A39G | 0.8
44 | U32G A39C | 0.09
45 | G33A C37A | 0.12
46 | G33A C37G | 0.04
47 | G33A C37U | 0.04
48 | C31U G44C | 0.07

Row | Variant | self-cleavage
49 | C31U G44A | 0.04
50 | C31U G44U | 0.05
51 | U34A C45G | 0.15
52 | U34A C45A | 0.08
53 | U34A C45U | 0.11
54 | U32C A41G | 0.07
55 | U32C A41U | 0.2
56 | U32C A41C | 0.09
57 | U34A A41U | 0.05
58 | U34A A41G | 0.05
59 | U34A A41C | 0.03
60 | G33U G44U | 0.07
61 | G33U G44A | 0.07
62 | G33U G44C | 0.06
63 | G33U U43C | 0.08
64 | G33U U43G | 0.02
65 | G33U U43A | 0.12
66 | C31U U38G | 0.05
67 | C31U U38C | 0.14
68 | C31U U38A | 0.2
69 | U34A C37A | 0.08
70 | U34A C37G | 0.04
71 | U34A C37U | 0.04
72 | U32C G44C | 0.09

Row | Variant | self-cleavage
73 | U32C G44A | 0.07
74 | U32C G44U | 0.07
75 | U32A A39U | 0.06
76 | U32A A39G | 0.05
77 | U32A A39C | 0.06
78 | U32A G36U | 0.05
79 | U32A G36A | 0.06
80 | U32A G36C | 0.11
81 | G33A C46U | 0.12
82 | G33A C46A | 0.1
83 | G33A C46G | 0.08
84 | G33C G35C | 0.04
85 | G33C G35U | 0.04
86 | G33C G35A | 0.04
87 | G33C U43C | 0.03
88 | G33C U43G | 0.01
89 | G33C U43A | 0.12
90 | U32C U34C | 0.16
91 | U32C U34A | 0.05
92 | U32C U34G | 0.08
93 | U32A C37U | 0.08
94 | U32A C37A | 0.04
95 | U32A C37G | 0.08
96 | G33C C37A | 0.03

Row | Variant | self-cleavage
97 | G33C C37G | 0.04
98 | G33C C37U | 0.05
99 | C31U U34C | 0.12
100 | C31U U34G | 0.04
101 | C31U U34A | 0.06
102 | U34C G36U | 0.06
103 | U34C G36C | 0.08
104 | U34C G36A | 0.09
105 | U32G C46G | 0.1
106 | U32G C46U | 0.17
107 | U32G C46A | 0.2
108 | U34A A39C | 0.12
109 | U34A A39U | 0.06
110 | U34A A39G | 0.05
111 | G33C U38G | 0.03
112 | G33C U38C | 0.04
113 | G33C U38A | 0.04
114 | G33U U38C | 0.08
115 | G33U U38G | 0.04
116 | G33U U38A | 0.08
117 | G33C U34G | 0.07
118 | G33C U34A | 0.09
119 | G33C U34C | 0.03
120 | U32C G40A | 0.06

Row | Variant | self-cleavage
121 | U32C G40U | 0.07
122 | U32C G40C | 0.03
123 | U34A G35C | 0.13
124 | U34A G35U | 0.06
125 | U34A G35A | 0.07
126 | U32A C46A | 0.08
127 | U32A C46U | 0.1
128 | U32A C46G | 0.28
129 | G33C C46A | 0.03
130 | G33C C46U | 0.05
131 | G33C C46G | 0.05
132 | G33A C42A | 0.08
133 | G33A C42G | 0.06
134 | G33A C42U | 0.14
135 | G33U C37G | 0.05
136 | G33U C37U | 0.06
137 | G33U C37A | 0.07
138 | G33C A39G | 0.03
139 | G33C A39U | 0.05
140 | G33C A39C | 0.09
141 | G33U A39U | 0.15
142 | G33U A39C | 0.07
143 | G33U A39G | 0.12
144 | U34A U43A | 0.06

Row | Variant | self-cleavage
145 | U34A U43C | 0.04
146 | U34A U43G | 0.04
147 | C31U G40U | 0.04
148 | G33U C46A | 0.07
149 | G33U C46G | 0.07
150 | G33U C46U | 0.07
151 | U34A | 0.1
152 | U34C | 0.13
153 | G33U A41U | 0.09
154 | G33U A41C | 0.06
155 | G33U A41G | 0.07
156 | G33U U34C | 0.23
157 | G33U U34A | 0.08
158 | G33U U34G | 0.05
159 | G33A A39G | 0.09
160 | G33A A39C | 0.08
161 | G33A A39U | 0.06
162 | G33C G36A | 0.03
163 | G33C G36C | 0.04
164 | G33C G36U | 0.06
165 | U34A C46A | 0.06
166 | U34A C46U | 0.09
167 | U34A C46G | 0.08
